Consider four molecules from PMC4838378 (Nucleic Acids Research, 2016).

Read-outs that look alike come from different tables or passages of the source.

Data set [1] has as its target T1, HpDnaB replicative helicase (Helicobacter pylori, UniProt O25916 1-488).
T1 sequence: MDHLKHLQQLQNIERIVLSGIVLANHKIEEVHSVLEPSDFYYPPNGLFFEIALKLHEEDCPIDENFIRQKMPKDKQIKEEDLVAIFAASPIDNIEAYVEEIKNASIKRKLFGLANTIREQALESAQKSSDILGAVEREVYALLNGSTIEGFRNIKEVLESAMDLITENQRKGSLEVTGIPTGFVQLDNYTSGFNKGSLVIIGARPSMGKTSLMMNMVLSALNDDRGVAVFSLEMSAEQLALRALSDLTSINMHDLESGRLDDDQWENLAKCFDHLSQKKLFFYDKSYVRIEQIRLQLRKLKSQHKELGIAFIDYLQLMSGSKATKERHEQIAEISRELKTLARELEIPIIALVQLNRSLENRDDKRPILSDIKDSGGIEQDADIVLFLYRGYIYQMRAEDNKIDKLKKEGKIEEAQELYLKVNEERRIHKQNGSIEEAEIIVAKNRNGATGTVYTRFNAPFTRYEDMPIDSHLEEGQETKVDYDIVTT
Nature of the data set: pull-down.

For a further data set, the target named is T2, Hp0897 (Helicobacter pylori 26695, UniProt O25557 1-208).
T2 sequence: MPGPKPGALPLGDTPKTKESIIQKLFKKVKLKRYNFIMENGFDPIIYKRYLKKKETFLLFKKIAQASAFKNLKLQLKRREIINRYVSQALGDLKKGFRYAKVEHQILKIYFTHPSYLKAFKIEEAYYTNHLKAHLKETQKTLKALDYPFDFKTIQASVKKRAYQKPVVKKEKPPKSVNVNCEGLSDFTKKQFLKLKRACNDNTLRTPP
Nature of the data set: EMSA.

Data set [2] addresses T3, HpDnaB replicative helicase;Hp0897 (Helicobacter pylori;Helicobacter pylori …, UniProt O25916;O25557 1-488;1-208, |).
T3 sequence 1: T1 sequence
T3 sequence 2: T2 sequence
Nature of the data set: EMSA. For orientation: Mobility shift assays separate free from complexed probe on a gel.

Data set [3] concerns the target T3, HpDnaB replicative helicase;Hp0897. In words: EMSA. This is another data set of the same source.
The data set “cross-linking” deals with the molecule itself. In words: cross-linking.

By stoichiometry N is commonly meant the number of molecules, sites or subunits per partner or assembly.

B1: biotinylated 70-nt ssDNA-1 (ssDNA)
DNA: CTGCCACACACCACCAAAGCTAACTGACAGCAGAATCCAGATGGATCATTTAAAGCATTTGCAACAATTG
modifications: 5' biotin
Regarding B1, the binding result in data set [1] was “binds”.

B2: 70NZ ssDNA-1 (ssDNA)
DNA: B1 DNA
Regarding B2, the binding result (with Hp0897; in data set [2]) was “binds” in each case.

B3: 70-nt forked DNA (ssDNA-1/ssDNA-2) (dsDNA)
DNA 1: B1 DNA
DNA 2: CAATTGTTGCAAATGCTTTAAATGATCCATGACCTAAGACGACAGTCAATCGAACCACCACACACCGTC
Regarding B3, in data set [3], the binding result is recorded as “binds”.

B4: His6-Hp0897 (natural protein, Helicobacter pylori strain 26695, UniProt O25557 1-208, looked up)
chain: T2 sequence
For B4, the “stoichiometry N” value in “cross-linking” stood at 2.
